Data on two molecules can be found in patent US20230400471A1, “SYSTEMS, COMPOSITIONS AND METHODS OF DETERMINING VIABILITY OF EMBRYOS USING THE SAME” (BioIncept, LLC, priority 2020, published 2023).

For assay [1], the system named is PIF. In words: Surface plasmon resonance (SPR), captured Clone #30 with PIF as analyte. Type of assay: binding, human. Conditions: PIF 2-fold concentration series up to 10 μM, duplicate. From the text: (§1) The PIF-binding specificity of the rabbit monoclonal antibody Clone #30 described in Example 1 was quantitatively characterized by surface plasmon resonance (SPR). SPR is an optical technique for detecting the interaction of two different molecules in which one is mobile and one is fixed on a thin gold film. In SPR analysis, affinity-purified ligand polypeptides are immobilized on a sensor chip inserted into the flow chamber of an instrument, such as Biacore 3000 instrument (Biacore, Uppsala, Sweden). Addition of a second polypeptide, the flow-through analyte, to the chamber, results in binding to the immobilized polypeptide ligand, producing a small change in refractive index at the gold surface, which can be quantified with precision. Binding affinities can be obtained from the ratio of rate constants, yielding a straightforward characterization of protein-protein interaction.
(§2) In the work described here, purified rabbit monoclonal antibody Clone #30 was used as the ligand polypeptide and PIF in solution was used as the analyte to evaluate their binding affinity. To immobilize rabbit monoclonal antibody Clone #30 onto a chip, a sheep polyclonal anti-rabbit antibody was used. The sheep anti-rabbit antibody was amine coupled to a CM5 sensor chip using standard NHS/EDC activation. […]

Assay [2] has as its system scrambled PIF (SCR). In words: Surface plasmon resonance (SPR), captured Clone #30 with scrambled PIF as analyte. In kind it is binding. Conditions: SCR 2-fold concentration series up to 10 μM, duplicate.
Excerpt: as §1, §2
On the technique in general: Surface plasmon resonance follows binding to a sensor surface in real time, without labels.

In assay [3] the target is T1, preimplantation factor (PIF), full-length 15-amino acid peptide (human). As to the kind of experiment: SPR, Clone #30 captured on sheep anti-rabbit CM5 chip, PIF as analyte, global 1:1 fit.
Assay [4] deals with T1, preimplantation factor (PIF), …. As to the kind of experiment: SPR: Clone #30 captured (about 2000 RU) on sheep anti-rabbit antibody amine-coupled to a CM5 chip; PIF as analyte in a 2-fold series up to 10 µM; global 1:1 fit.
Assay [5] shares this target. The description is as above. This is another data set of the same source.

B1: Clone #30: Rabbit monoclonal antibody against human PIF peptide; heavy chain SEQ ID NO: 2, light chain SEQ ID NO: 7 (antibody, listed as Homo sapiens)
heavy: METGLRWLLLVAVLKGVQCRSLEESGGRLVTPGTPLTLTCTVSGIDLSTYSMSWVRQAPGEGLEWIATINTGGSAYYANWAKGRFTISKTSTTVTLKMTSLTTEDTATYFCARTISADNLWGHGTLVTVSSGQPKAPSVFPLAPCCGDTPSSTVTLGCLVKGYLPEPVTVTWNSGTLTNGVRTFPSVRQSSGLYSLSSVVSVTSSSQPVTCNVAHPATNTKVDKTVAPSTCSKPTCPPPELLGGPSVFIFPPKPKDTLMISRTPEVTCVVVDVSQ
light: MDTRAPTQLLGLLLLWLPGATFAQVLTQTPSSVSAAVGSTVTISCQSSQSVYSDYLSWYQQKPGQPPKRLIYAAFTLASGVPSRFKGSGSEKQFTLTISDLECDDAATYYCAAIYSNDIWAFGGGTEVVVKGDPVAPTVLIFPPSADQVATGTVTIVCVANKYFPDVTVTWEVDGTTQTTGIENSKTPQNSADCTYNLSSTLTLTSTQYNSHKEYTCKVTQGTTSVVQSFNRGDC
What is called Kd is the free concentration of one partner at which half of the binding sites on the other are occupied at equilibrium, for simple one-to-one binding. On to B1, for which the “binding of PIF to Clone #30 by SPR” value in assay [1] is “significant and concentration dependent binding response”. The equilibrium dissociation constant (Kd) in assay [1] (SPR, 1:1 interaction model) is roughly 15 nM. Further, the “binding of scrambled PIF (SCR) to Clone #30 by SPR” value in assay [2] was “no binding was observed”.

B2: rabbit monoclonal anti-PIF antibody Clone #30 (antibody, V domains shown)
VH: RSLEESGGRLVTPGTPLTLTCTVSGIDLSTYSMSWVRQAPGEGLEWIATINTGGSAYYANWAKGRFTISKTSTTVTLKMTSLTTEDTATYFCARTISADNLWGHGTLVTVSS
VL: QVLTQTPSSVSAAVGSTVTISCQSSQSVYSDYLSWYQQKPGQPPKRLIYAAFTLASGVPSRFKGSGSEKQFTLTISDLECDDAATYYCAAIYSNDIWAFGGGTEVVVK
As for B2, the Kd is 15 nM in assay [3], 10.7 nM in assay [4] and 17.5 nM in assay [5].
